B1: CXCL1 WT probe (dsDNA)
DNA 1: TGGAACTTTCAAAATCCCCT
DNA 2: AGGGGATTTTGAAAGTTCCA
B2: CXCL1 MUT probe (dsDNA)
DNA 1: TGGAAACGGTCCCCACCCCT
DNA 2: AGGGGTGGGGACCGTTTCCA
B3: CXCL2 WT probe (dsDNA)
DNA 1: TAGAAGTGGTGTTTCACAACCTTACTGATA
DNA 2: TATCAGTAAGGTTGTGAAACACCACTTCTA
B4: CXCL2 MUT probe (dsDNA)
DNA 1: TAGAAGTGGTAGGGTCTCCTCTTACTGATA
DNA 2: TATCAGTAAGAGGAGACCCTACCACTTCTA
B5: CXCL5 WT probe (dsDNA)
DNA 1: CACTGTCTTGCTCCATGGCAG
DNA 2: CTGCCATGGAGCAAGACAGTG
B6: CXCL5 MUT probe (dsDNA)
DNA 1: CACTGTCAATTTTTATGGCAG
DNA 2: CTGCCATAAAAATTGACAGTG

Columns and labels:
C/EBPβ [1] = target: T1, C/EBPβ (Homo sapiens, UniProt P17676 1-345); experiment: EMSA, competition, supershift; LightShift Chemiluminescent EMSA kit; 6% native polyacrylamide gel, 0.5x TBE, 100 V, 60 min; binding buffer, salt, pH and temperature not stated; details: protein: recombinant; chain copies: 2; label: biotin (5' of both strands); blunt
T1 sequence (P17676 whole entry): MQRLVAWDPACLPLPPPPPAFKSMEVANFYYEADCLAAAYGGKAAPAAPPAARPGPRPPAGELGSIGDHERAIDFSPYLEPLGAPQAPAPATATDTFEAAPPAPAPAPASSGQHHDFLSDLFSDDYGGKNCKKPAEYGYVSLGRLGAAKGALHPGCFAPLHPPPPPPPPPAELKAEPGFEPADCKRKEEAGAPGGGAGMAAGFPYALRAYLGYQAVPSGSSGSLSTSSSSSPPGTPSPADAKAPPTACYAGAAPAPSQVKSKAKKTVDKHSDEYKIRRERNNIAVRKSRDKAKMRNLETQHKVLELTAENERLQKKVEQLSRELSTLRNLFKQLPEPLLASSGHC

C/EBPβ [2] = target: T1, C/EBPβ; experiment: competition; 100-fold molar excess vs biotin CXCL1 WT probe; LightShift Chemiluminescent EMSA kit; 6% native polyacrylamide gel, 0.5x TBE, 100 V, 60 min; binding buffer, salt, pH and temperature not stated; details: protein: recombinant; chain copies: 2; label: unlabeled; blunt
C/EBPβ [3] = target: T1, C/EBPβ; experiment: competition; 100-fold molar excess vs biotin CXCL2 WT probe; LightShift Chemiluminescent EMSA kit; 6% native polyacrylamide gel, 0.5x TBE, 100 V, 60 min; binding buffer, salt, pH and temperature not stated; details: protein: recombinant; chain copies: 2; label: unlabeled; blunt
C/EBPβ [4] = target: T1, C/EBPβ; experiment: competition; 100-fold molar excess vs biotin CXCL5 WT probe; LightShift Chemiluminescent EMSA kit; 6% native polyacrylamide gel, 0.5x TBE, 100 V, 60 min; binding buffer, salt, pH and temperature not stated; details: protein: recombinant; chain copies: 2; label: unlabeled; blunt

Row | Binder | binding result (C/EBPβ [1]) | other results
1 | B1 | binds | 
2 | B2 |  | binding result (C/EBPβ [2]): no binding
3 | B3 | binds | 
4 | B4 |  | binding result (C/EBPβ [3]): no binding
5 | B5 | binds | 
6 | B6 |  | binding result (C/EBPβ [4]): no binding
